In patent publication US20240016923A1 (UNIVERSITY OF MARYLAND COLLEGE PARK, published 2024):
Ends that are not written are not given here.

B2: secreted E1E2 with c-Fos/c-Jun leucine zipper scaffold (sE1E2.LZ) (other)
chain 1: YQVRNSSGLYHVTNDCPNSSIVYEAADAILHTPGCVPCVREGNASRCWVAVTPTVATRDGKLPTTQLRRHIDLLVGSATLCSALYVGDLCGSVFLVGQLFTFSPRRHWTTQDCNCSIYPGHITGHRMAWDMMMNWSPTAALVVAQLLRIPQAIMDMIAPGGRIARLEEKVKTLKAQNSELASTANMLREQVAQLKQKVMNYRRRRRR
chain 2: ETHVTGGSAGRTTAGLVGLLTPGAKQNIQLINTNGSWHINSTALNCNESLNTGWLAGLFYQHKFNSSGCPERLASCRRLTDFAQGWGPISYANGSGLDERPYCWHYPPRPCGIVPAKSVCGPVYCFTPSPVVVGTTDRSGAPTYSWGANDTDVFVLNNTRPPLGNWFGCTWMNSTGFTKVCGAPPCVIGGVGNNTLLCPTDCFRKHPEATYSRCGSGPWITPRCMVDYPYRLWHYPCTINYTIFKVRMYVGGVEHRLEAACNWTRGERCDLEDRDRSELSPLLLSTTQWQVLPCSFTTLPALSTGLIHLHQNIVDVQYLYGVGSSIASWAIPGGLTDTLQAETDQLEDKKSALQTEIANLLKEKEKLEFILAAYHHHHHH
notes: It is written here as the two chains expected after furin cleavage

Legend:
[1] = biological target: B2; assay: dose-dependent ELISA, antigen captured by GNA lectin
[2] = biological target: T1, membrane-bound E1E2 (mbE1E2) (Hepatitis C virus, isolate H77C …, UniProt P27958 192-746); assay: as above
T1 construct: Extracted from Expi293 membranes with detergent and purified; a heterogeneous mix of oligomers

[3] = biological target: T2, CD81 large extracellular loop (CD81-LEL) (UniProt P60033 113-201); assay: SPR (Biacore T200), antigen amine-coupled on CM5 chip, CD81-LEL injected, single cycle kinetics, 1:1 model
T2 construct: domain: large extracellular loop (LEL); also called CD81 receptor
T2 sequence (looked up): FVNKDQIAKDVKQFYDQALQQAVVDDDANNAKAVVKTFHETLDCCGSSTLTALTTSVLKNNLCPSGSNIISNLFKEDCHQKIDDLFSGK

[4] = biological target: T2, CD81 large extracellular loop (CD81-LEL); assay: SPR (Biacore T200); sE1E2.LZ amine-coupled to a CM5 chip, CD81-LEL injected; 1:1 model
c-Fos peptide = biological target: T3, c-Fos peptide (human); assay: circular dichroism spectroscopy of mixed peptides
T3 construct: Synthetic biotinylated peptide

B1: HC84.24 (antibody, V domains shown)
VH: QVQLVQSGAEVKKPGSSVKVSCKASGGTFSLNSLSWVRQAPGQGLEWMGTIIPIVGIANYAQKFQGRVTITADKSTGTAYMDLSSLSDDTAVYFCARELYSGTGFFRLEALDYWGQGTLVTVSS
VL: DIQMTQSPATLSLSPGERATLSCRASQSVSSYLAWYQQKPGQAPRLLIYDASNRATGIPARFIAGGSGTDFTLTISSLEPEDFAVYYCQQYGSPQTFGQGTKLEIKR
[1]
  Kd: 1.3 nM
[2]
  Kd: 0.5 nM

## B2
[3]
  Kd: 10.8 nM
[4]
  koff: 0.00067 s⁻¹
  kon: 63000 M⁻¹ s⁻¹

## RIARLEEKVKTLKAQNSELASTANMLREQVAQLKQKVMNY (also: biotinylated, position not given here, Synthetic biotinylated peptide) [c-Jun peptide]
c-Fos peptide
  binding result: binds
